The values below are quoted from earlier work in PMC2794832 (Journal of nuclear medicine : official publication, Society …, 2008).

The series has as its system tumors of HEK cells stably transfected to express only SSTR2. The following applies: mouse, in vivo.

In the case of “^111In-1,4,7,10-tetraazacyclododecane-1,4,7,10-tetraacetic acid-sst2-ANT [^111In-DOTA-sst2-ANT]”, the “uptake of the radiopharmaceutical in tumors” value is listed as “high uptake”.
